Results from paper PMC5882628, “Development of a Cell-Based Assay to Assess Binding of the proNGF Prodomain to Sortilin” (Cellular and Molecular Neurobiology, 2017).
“Also recorded” adds a separate entry of the source.

What was measured:
sortilin [1] = molecular target: T1, sortilin (Homo sapiens, UniProt Q99523); assay: Cell-based assay of GSTpro (NGF prodomain) binding/uptake, wt sortilin-transfected HEK293 cells, sortilin/GST double stain, high content imaging, with detergent; conditions: for signal and assay window, GSTpro compared to proNGF (in words): Fig. 3u, sortilin-transfected cells
T1 construct: They were transfected with plasmids either encoding wild type sortilin, or sortilin with a mutation that renders it endocytosis deficient; expressed in transfected cells; host or cells: HEK 293 cells, transient transfection (lipofectamine)
T1 sequence (Q99523 78-831): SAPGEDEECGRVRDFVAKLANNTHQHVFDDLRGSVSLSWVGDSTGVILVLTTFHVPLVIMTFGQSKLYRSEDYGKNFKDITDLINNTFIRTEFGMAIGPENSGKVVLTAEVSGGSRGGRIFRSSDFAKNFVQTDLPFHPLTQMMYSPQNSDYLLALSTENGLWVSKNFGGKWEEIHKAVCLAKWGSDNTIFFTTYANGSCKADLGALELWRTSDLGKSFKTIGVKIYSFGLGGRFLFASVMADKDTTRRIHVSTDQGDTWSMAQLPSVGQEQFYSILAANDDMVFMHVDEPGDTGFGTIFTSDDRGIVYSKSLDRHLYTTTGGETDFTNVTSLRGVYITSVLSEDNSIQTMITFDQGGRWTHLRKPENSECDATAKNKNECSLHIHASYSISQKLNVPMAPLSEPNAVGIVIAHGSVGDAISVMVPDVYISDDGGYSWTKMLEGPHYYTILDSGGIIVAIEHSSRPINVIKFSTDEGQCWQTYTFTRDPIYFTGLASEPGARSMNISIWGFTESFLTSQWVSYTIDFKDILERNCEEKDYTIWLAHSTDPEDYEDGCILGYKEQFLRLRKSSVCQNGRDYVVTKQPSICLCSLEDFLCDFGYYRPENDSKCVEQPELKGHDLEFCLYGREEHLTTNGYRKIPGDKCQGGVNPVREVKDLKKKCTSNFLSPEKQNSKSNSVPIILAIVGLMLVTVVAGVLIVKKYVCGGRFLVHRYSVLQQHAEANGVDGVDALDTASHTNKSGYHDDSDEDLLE
Experimental: HEK 293 cells were grown in DMEM with 10% fetal bovine serum. They were transfected with plasmids either encoding wild type sortilin, or sortilin with a mutation that renders it endocytosis deficient, or an empty control vector according to manufacturer’s instructions using 20 µg lipofectamine (Thermo Fischer Scientific) with 8 µg DNA on […] per 6 cm, poly-lysine coated dish. The cells were initially plated into 24-well dishes after transfection. That intermediate step rendered more uniform cell numbers in the 96-well dishes that were used to run the actual assay. 24 h later, cells were split into black opaque-walled, clear-bottom 96 well dishes at 42000 cells in 80 µl medium/well. […] 1 h after that treatment, the medium was replaced with 80 µl medium containing the same antibody, compounds or peptides included in the preincubation medium, plus recombinant GSTpro or proNGF (either purified in-house from recombinant HEK cells or derived from an E.coli expression system at either 0 nM (negative control), or 50 nM, or, in a few instances at 5 or 10 nM. The respective concentrations are indicated in the figures 45 min after adding GSTpro or proNGF, cells were washed twice with prewarmed PBS and fixed in 4% PFA for 20 min at approximately 20 °C.
(§1) The fixed cells were washed with PBS for 15 min, followed by two 15 min washes with PBS with 0.1% Triton X-100. […] Wells to be evaluated for blocking of the sortilin-GSTpro interaction by antibodies were only stained with an antibody against the pro domain of proNGF in 10% FBS at a dilution of 1:1500 (Millipore (N-term) clone EPI318Y, Rabbit Monoclonal Antibody Catalog Number: #04-1142). […]
(§2) The following day, wells were washed 3 × 15 min with PBS/0.1% Triton X-100. […] Cellular fluorescence was quantified using an array scanner and the “Neuronal Profiler” Bioapplication (Thermo Fisher Scientific) as described below.
Sortilin-GSTpro interaction was also assessed using HEK cell derived cell lines stably expressing sortilin. […]
Images from 96 well dishes were automatically recorded with a Cellomics ArrayScan VTI HCS Reader (Thermo Scientific) using a 10× microscope objective and the build-in standard autofocus method. Fifteen 1024 × 1024 images in 4 channels (Channel 1 and 2: Filter XF5–Hoechst, to detect nuclei and all cells; Channel 3: XF53-Texas Red to detect, e.g., sortilin-positive cells; Channel 4: Filter XF93 – FITC, to detect cells positive, e.g., for the proNGF pro domain) were recorded per 96 well.
The images were analyzed with the Cellomics assay algorithm NeuronalProfiling.V3.5.

sortilin [2] = molecular target: T1, sortilin; assay: GSTpro binding to wt sortilin-transfected HEK293 cells, staining without detergent permeabilization; type: cell-based; conditions: versus staining with detergent, Fig. 6a vs 6b
Experimental: HEK 293 cells were grown in DMEM with 10% fetal bovine serum. They were transfected with plasmids either encoding wild type sortilin, or sortilin with a mutation that renders it endocytosis deficient, or an empty control vector according to manufacturer’s instructions using 20 µg lipofectamine (Thermo Fischer Scientific) with 8 µg DNA on […] per 6 cm, poly-lysine coated dish. The cells were initially plated into 24-well dishes after transfection. That intermediate step rendered more uniform cell numbers in the 96-well dishes that were used to run the actual assay. 24 h later, cells were split into black opaque-walled, clear-bottom 96 well dishes at 42000 cells in 80 µl medium/well. […]
as §1, §2

sortilin [3] = molecular target: T1, sortilin; assay: GSTpro internalization: acid wash (PBS, pH 2.0) before fixation; type: cell-based; conditions: PBS pH 2.0 immediately before fixation
Text: To further examine whether GSTpro was internalized, rather than only binding to the cell exterior, extracellularly bound ligand was removed by washing cells in PBS acidified to pH 2.0 with HCl supplemented with 0.03 M sucrose and 10% FCS immediately before fixation.
It was not clear whether the detected ligand signal was only due to GSTpro binding to sortilin, or whether sortilin would be subsequently internalized. To determine if GSTpro was endocytosed after sortilin binding, we performed immunocytochemical staining with and without detergent (Fig. 6a, b, respectively). […] However, alternative interpretations are also possible (see discussion). […] We investigated if GSTpro was bound to the cell surface by using an acid wash to remove surface bound GSTpro. Cells were washed in PBS, pH 2.0 immediately before fixation, to remove extracellular ligand bound to receptors.

- signal and assay window, GSTpro compared to proNGF (in words) (sortilin [1]): substantially larger compared to proNGF
- signal and assay window, GSTpro compared to proNGF (in words) (sortilin [1]; listed as GST-pro): larger signal and assay window
- reduction of GSTpro signal without permeabilization (sortilin [2]; cells expressing sortilin below the set threshold): less than half reduced
- reduction of GSTpro signal by acid wash (sortilin [3]; data not shown): 20%
B1: GSTpro: fusion of Glutathione S-transferase (GST) merged at the C-terminal of GST to the pro part (19–121) of human proNGF (protein)
chain: EPHSESNVPAGHTIPQAHWTKLQHSLDTALRRARSAPAAAIAARVAGQTRNITVDPRLFKKRRLRSPRVLFSTQPPREAADTQDLDFEVGGAAPFNRTHRSKR
modifications: left off: GST, N-terminal, kept
notes: fusion of Glutathione S-transferase (GST) merged at the C-terminal of GST to the pro part (19–121) of human proNGF
- GSTpro signal, sortilin-positive versus sortilin-negative (or control-transfected) cells (in words) (sortilin [1]; Figs. 3, 4b, 6, 7, 8): highly enhanced GSTpro uptake or binding; also recorded: several fold higher GSTpro signal in sortilin-positive cells
- reduction of GSTpro signal without permeabilization (sortilin [2]; sortilin-positive cells): almost fourfold reduced; also recorded: much lower GSTpro signal
- fraction of GSTpro signal removed by acid wash (in words) (sortilin [3]): only removes a small fraction of the GSTpro signal
